Data taken from US20240150455A1 (SHANGHAI GENBASE BIOTECHNOLOGY, published 2024).
Numbering of substitutions follows the chain as printed. Blank lines part the entries; values can stand above or below the binder they belong to.

Tests used:
human CLDN6 (Claudin 6) [1] = target: T1, human CLDN6 (Claudin 6) (human, UniProt P56747 1-220); assay: cell-based or functional assay
T1 sequence (looked up): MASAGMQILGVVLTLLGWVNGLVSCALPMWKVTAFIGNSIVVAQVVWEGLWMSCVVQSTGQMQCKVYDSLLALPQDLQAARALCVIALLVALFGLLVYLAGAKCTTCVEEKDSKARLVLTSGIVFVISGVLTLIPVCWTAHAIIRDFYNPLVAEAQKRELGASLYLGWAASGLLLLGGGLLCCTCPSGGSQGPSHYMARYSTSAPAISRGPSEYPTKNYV

human CLDN6 (Claudin 6) [2] = target: T1, human CLDN6 (Claudin 6); assay: flow cytometry on OV90 tumor cells naturally expressing human CLDN6
Method: (§1) 500,000 CLDN6-naturally expressing tumor cells (0V90, ATCC; NEC8, JCRB; NTERA2, Nanjing Cobioer Biosciences Co., Ltd; Bewo, Nanjing Cobioer Biosciences Co., Ltd) were placed in FACS buffer for later use, in which round-bottom low-adsorption 96-well plates were used. Antibody samples were serially diluted with FACS buffer. The diluted antibody was added to the cell plates, and FACS buffer was added to the corresponding negative control wells, and incubation was performed at 4° C. for 1 hour. […] After staining, the supernatant was removed by centrifugation, washing was performed twice with FACS buffer, and the cells were resuspended by adding FACS buffer to each well, and then loaded on a machine for reading. A flow cytometer (BD Company, model CantoII) was used to measure and read the cells in the experimental plate. During the measurement, the position of cells was first delineated according to FCS and SSC, and then the fluorescence channel corresponding to the second antibody and SSC were selected to analyze the cells. GraphPad was used for data analysis, the logarithm of antibody concentration was used on the abscissa, and the average fluorescence intensity value was used on the ordinate. […]

human CLDN6 (Claudin 6) [3] = target: T1, human CLDN6 (Claudin 6); assay: flow cytometry on NEC8 tumor cells naturally expressing human CLDN6
Method: as §1

human CLDN6 (Claudin 6) [4] = target: T1, human CLDN6 (Claudin 6); assay: flow cytometry on Bewo tumor cells naturally expressing human CLDN6
Method: as §1

human CLDN6 (Claudin 6) [5] = target: T1, human CLDN6 (Claudin 6); assay: flow cytometry on NTERA2 tumor cells naturally expressing human CLDN6
Method: as §1

human CLDN9 (Claudin 9) = target: T2, human CLDN9 (Claudin 9) (human, UniProt O95484 1-217); assay: flow cytometry on CHOS-CLDN9 cells
T2 construct: whole, on cells; Over-expressed on CHOS cells by lentiviral infection; also called CHOS-CLDN9
T2 sequence (looked up): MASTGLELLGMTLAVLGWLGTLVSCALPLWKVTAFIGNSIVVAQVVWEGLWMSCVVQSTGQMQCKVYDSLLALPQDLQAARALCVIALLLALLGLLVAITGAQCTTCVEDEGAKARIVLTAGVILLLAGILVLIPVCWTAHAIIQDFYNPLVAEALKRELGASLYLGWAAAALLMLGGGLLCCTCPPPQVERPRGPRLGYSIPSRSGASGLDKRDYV
Method: (§2) Flow cytometric evaluation of mouse antibody binding to CLDN3/4/6/9: 500,000 CLDN6 expressing cells (CHOS-hCLDN6, CHOS-CLDN3, CHOS-CLDN4, CHOS-CLDN9) were placed in FACS buffer (PBS+2% FBS)/well, added with the mouse antibody to be tested and incubated at 4° C. for 1 hour. The supernatant was removed by centrifugation, washing was performed twice with FACS buffer, secondary antibody (DyLight488 goat anti-mouse IgG, Abcam, Cat. No.: ab97015) was added and incubated at 4° C. for 0.5 hours. After staining, the supernatant was removed by centrifugation, washing was performed twice with FACS buffer, the cells were resuspended with FACS buffer, and then loaded on the machine for reading. A flow cytometer (BD company, model CantoII) was used to measure and read the experimental cells. During the measurement, the cell position was first delineated according to FCS and SSC, and then the fluorescence channel corresponding to the second antibody and SSC were selected to analyze the cells.

human CLDN6 (Claudin 6) [6] = target: T1, human CLDN6 (Claudin 6); assay: flow cytometry on CHOS-hCLDN6 cells
Method: as §2

human CLDN6 (Claudin 6) [7] = target: T1, human CLDN6 (Claudin 6); assay: binding to CLDN6-expressing cells (FIG. 6: NEC8, Bewo)

ADCC EC50, Bewo target cells, Jurkat-NFAT-Luc-CD16 effector reporter cells (human CLDN6 (Claudin 6) [1]): 0.7 µg/mL
ADCC EC50, NEC8 target cells, Jurkat-NFAT-Luc-CD16 effector reporter cells (human CLDN6 (Claudin 6) [1]): 0.15 µg/mL
ADCC EC50, NTERA2 target cells, Jurkat-NFAT-Luc-CD16 effector reporter cells (human CLDN6 (Claudin 6) [1]): 0.55 µg/mL
ADCC EC50, OV90 target cells, Jurkat-NFAT-Luc-CD16 effector reporter cells (human CLDN6 (Claudin 6) [1]): 0.55 µg/mL
EC50 (human CLDN6 (Claudin 6) [2]): 2.85 µg/mL
EC50 (human CLDN6 (Claudin 6) [3]): 1.31 µg/mL
EC50 (human CLDN6 (Claudin 6) [4]): 1.06 µg/mL
EC50 (human CLDN6 (Claudin 6) [5]): 1.22 µg/mL
B1: humanized antibody 7008-01 (antibody, human IgG1, kappa, V domains shown)
VH: QVQLQESGPGLVKPSETLSLTCTVSGYSITSGYYWNWIRQPPGKGLEWMGYISYSGSNNYNPSLKNRVTISRDTSKNQFSLKLSSVTAADTAVYYCARGGYYFDYWGQGTLVTVSS
VL: DIVMTQSPDSLAVSLGERATINCKSSQSLLNTNNQKNYLAWYQQKPGQPPKLLIYFASTRESGVPDRFSGSGSGTDFTLTISSLQAEDVAVYFCQQHYNAPRTFGGGTKVEIKR
notes: Human IgG1 heavy chain constant region, human kappa light chain constant region

ADCC EC50, Bewo target cells, Jurkat-NFAT-Luc-CD16 effector reporter cells (human CLDN6 (Claudin 6) [1]): 0.21 µg/mL
ADCC EC50, NEC8 target cells, Jurkat-NFAT-Luc-CD16 effector reporter cells (human CLDN6 (Claudin 6) [1]): 0.071 µg/mL
ADCC EC50, NTERA2 target cells, Jurkat-NFAT-Luc-CD16 effector reporter cells (human CLDN6 (Claudin 6) [1]): 0.4 µg/mL
ADCC EC50, OV90 target cells, Jurkat-NFAT-Luc-CD16 effector reporter cells (human CLDN6 (Claudin 6) [1]): 0.16 µg/mL
EC50 (human CLDN6 (Claudin 6) [2]): 3.79 µg/mL
EC50 (human CLDN6 (Claudin 6) [3]): 0.91 µg/mL
EC50 (human CLDN6 (Claudin 6) [4]): 0.9 µg/mL
EC50 (human CLDN6 (Claudin 6) [5]): 1.02 µg/mL
B2: humanized antibody 7008-03 (antibody, human IgG1, kappa, V domains shown)
VH: EVQLVESGGGLVQPGGSLRLSCAASGFTFSIYGMSWVRQAPGKGLEWVATISRDASYTYFPDSVKGRFTISRDNAKNSLYLQMNSLRAEDTAVYYCVRLGDNDRGYAMDYWGQGTLVTVSS
VL: DVVMTQSPLSLPVTLGQPASISCRSSQSVVHVNANTYLEWYQQRPGQSPRLLIYKVSNRFPGVPDRFSGSGSGTDFTLKISRVEAEDVGVYYCFQGSHVPRTFGGGTKVEIKR
notes: as for B1

binding result (human CLDN9 (Claudin 9)): binds
binding result (human CLDN6 (Claudin 6) [6]): binds
B3: anti-CLDN6 murine antibody 9H3 (antibody, V domains shown)
VH: EVQLVESGGDLVKPGGSLKLSCAASGFTFSIYGMSWVRQSPDRRLEWVATISRDGSYTYFPDSVKGRFTISRDNAKNTLYLQMSSLKSEDTAMYYCVRLGDNDRGYAMDYWGQGTSVTVSS
VL: DVLMTQTPLSLPVSLGDQASISCRSSQSVVHVNGNTYLEWYLQKPGQSPRLLIYKVSNRFPGVPDRFSGSGSGTDFTLRISRVEAEDLGVYYCFQGSHVPRTFGGGTNLEIK
notes: Mouse hybridoma antibody, detected with anti-mouse IgG; the murine constant regions are not

fold change of the ability to bind against the unmutated antibody (human CLDN6 (Claudin 6) [7]): ≤ 3 times
B4: 9H3 hotspot mutant, LCDR1 NG mutated to SG and HCDR2 DG mutated to DA (antibody, V domains shown)
VH: B3 VH with G55A
VL: B3 VL with N33S
notes: also called 9H3 antibody with a hotspot mutant

fold change of the ability to bind against the unmutated antibody (human CLDN6 (Claudin 6) [7]): ≤ 3 times
B5: 9H3 hotspot mutant, LCDR1 NG mutated to NA and HCDR2 DG mutated to DA (antibody, V domains shown)
VH: B3 VH with G55A
VL: B3 VL with G34A
notes: as for B4

binding result (human CLDN6 (Claudin 6) [6]): binds
B6: anti-CLDN6 murine antibody 15H2 (antibody, V domains shown)
VH: DVQLQESGPGLVKPSQSLSLTCSVTGYSITSGYYWNWIRQFPGNKLEWMGYISYDGSNNYNPSLKNRFSIIRDTSKNQFFLKFNSVTTEDTATYYCARGGYYFDYWGQGTTLTVSS
VL: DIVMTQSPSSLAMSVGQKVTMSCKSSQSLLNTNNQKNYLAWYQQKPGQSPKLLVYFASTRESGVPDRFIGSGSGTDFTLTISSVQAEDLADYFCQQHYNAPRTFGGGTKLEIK
notes: as for B3
